The target in this assay is T1, LRRC33 (Leucine-rich repeat-containing protein 33) (human, UniProt Q86YC3 19-692).
T1 construct: Endogenous LRRC33 on the surface of PMA-stimulated THP1 cells; On cells it may be complexed with proTGFb1; also called NRROS; Negative Regulator of Reactive Oxygen Species
T1 sequence: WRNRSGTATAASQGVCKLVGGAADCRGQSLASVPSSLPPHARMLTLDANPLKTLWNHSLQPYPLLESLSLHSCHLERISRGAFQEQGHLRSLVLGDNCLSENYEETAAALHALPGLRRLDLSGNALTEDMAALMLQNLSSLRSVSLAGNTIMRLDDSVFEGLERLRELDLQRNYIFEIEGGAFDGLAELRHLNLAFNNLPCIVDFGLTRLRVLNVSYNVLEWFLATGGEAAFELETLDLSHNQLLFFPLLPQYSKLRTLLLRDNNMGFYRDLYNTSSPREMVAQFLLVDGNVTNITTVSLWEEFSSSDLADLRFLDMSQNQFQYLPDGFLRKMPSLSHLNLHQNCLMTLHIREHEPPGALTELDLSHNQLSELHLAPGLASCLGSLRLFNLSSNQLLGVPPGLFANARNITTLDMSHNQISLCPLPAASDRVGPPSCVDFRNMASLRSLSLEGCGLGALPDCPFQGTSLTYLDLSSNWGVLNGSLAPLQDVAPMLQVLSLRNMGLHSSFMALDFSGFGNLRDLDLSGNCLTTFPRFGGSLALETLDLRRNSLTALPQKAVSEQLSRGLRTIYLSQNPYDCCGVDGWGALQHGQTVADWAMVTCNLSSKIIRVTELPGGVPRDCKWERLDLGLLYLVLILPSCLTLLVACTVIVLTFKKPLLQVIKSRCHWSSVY
Description: staining of PMA-stimulated THP1 cells with 10 ug/mL antibody, detected with fluorophore conjugated secondary antibody (internalization assay). How it is done:
FIG. 15 provides results from an internalization study. THP1 cells were stimulated overnight with PMA to induce LRRC33 surface expression and adherence to tissue culture plastic. The next day, cells were stained with antibodies at 10 ug/mL for 1 hour. A subset of cells were washed and moved to cell culture media and to 37° C. for 1 hour or two hours, while another subset (time 0) were immediately fixed. Another subset of cells were washed and kept at 4° C. Internalization was detected by using fluorophore conjugated secondary antibodies against the primary antibody isotypes. Gemtuzumab and SRL1, a human specific mouse antibody against LRRC33, internalize similarly.

B1: SRL1 (antibody, V domains shown)
VH: EVQLQQSGTVLARPGASVKMSCKASGYTFTYYWMQWVKQRPGQGLEWIGAIYPGNSDTTYNQKFKGKAKLTAVTSTSTAYMELSSLTNEDSAVYYCTNTNWEAMDYWGQGTSVTVSS
VL: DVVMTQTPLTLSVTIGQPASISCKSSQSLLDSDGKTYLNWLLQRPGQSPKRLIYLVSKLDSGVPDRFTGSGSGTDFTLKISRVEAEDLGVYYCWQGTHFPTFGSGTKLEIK
notes: also called LRRC33 antibody SRL1
Turning to B1, the binding result is “binds”.

The values above are taken from patent US20200181251A1 (SCHOLAR ROCK, published 2020).
